Paper PMC3813556, “Probing the Dynamic Process of Encapsulation in Escherichia coli GroEL” (PLoS ONE, 2013)
One block for each molecule: values may come before it.

Columns and labels:
[1] = molecular target: GroEL SR-1 RW (E. coli) (UniProt P0A6F5); assay: FRET or BRET; stopped-flow intermolecular FRET from the apical domain tryptophan of the GroEL mutant to prebound acid-unfolded AEDANS-GroELwt (equimolar); decrease of FRET after addition of ATP and GroES
[2] = molecular target: T1, GroEL R231W (E. coli, UniProt P0A6F5 1-548, R231W); assay: stopped-flow tryptophan fluorescence; GroEL with prebound Gdn-HCl-unfolded MDH (5 min pre-incubation at 25°C); 0.625 µM GroEL oligomer; 1 mM ATP without or with equimolar GroES; conditions: both partners purified
T1 construct: GroEL, E. coli, with a unique tryptophan in the apical domain; Double ring 14-mer; copies: 14

k of PhaseFRET2 (rate of release of the bound unfolded protein) [1]: 0.21 s⁻¹
k of PhaseFRET (rate of release of the bound unfolded protein) [1]: 4.1 s⁻¹
Molecule: AEDANS-labelled, acid-unfolded wild type GroEL (from UniProt P0A6F5 1-548) (natural protein)

binding result [2]: binds
B1: GroES (natural protein, E. coli, UniProt P0A6F9 1-97, looked up)
chain: MNIRPLHDRVIVKRKEVETKSAGGIVLTGSAAAKSTRGEVLAVGNGRILENGEVKPLDVKVGDIVIFNDGYGVKSEKIDNEEVLIMSESDILAIVEA
notes: GroES, co-chaperonin of the E. coli chaperonin GroE; also called wild type GroES; co-chaperonin GroES
